Measurements: the DeepSol protein solubility set

assay: soluble on expression in E. coli; label from the status in PepcDB or PDB records

Sequence	soluble on expression in E. coli
MKKPPLNICILRLSAIGDVCHTLAVIQAIQRQYPDIKISWIIGKTEAHLMQGIHNVELIPYDKKSGWQGIITLWKQLRNKRFDFLLNMQTALRASMLSLGIKATHKIGFNKDRAREMQSLFVDSQVEMTASPHVLDGQMMFAKAIGVTDLTPRWHLPVSSADLAYSNQFLNPHTQNVVIAPCSSKTEKDWDIASNAEIAKWLTDQNINVIIVGSPTDYECATANQIKQLAPKVINTTGKTTLKQLAALIKQVDLVIAPDTGVAHIATTQHTRVIGLYAIHNPRRTAPYSDQANVISVYDQAILDYYGTSWDKLAWATKAKSKKGEKLMQRITVEEVKQKIVETLNLKL	not soluble
MKKQKSFPMSAYEDLLGKITAPTITVENWEGILAFCDMINNDFEGSKTGIKSLRKRLNNRDPHVVLLAISVLDSCWANCEERFRKEVSSAQFINELKALCTSSQRQVAEKMRLTVQKWVDTECKTEQSLSLIVTLHKNLVADGYSFVVDDPKSKTKAIDAKFANDPNYVGSAQEEEAIAKAIAASLADAEKQEKAKKSTSTMYPSAKASSPAVQTNSNIPEKNVRALYDFEAAESNELSFVAGDIITITDESNPHWWTGRIGTQQGLFPSSFVTNQLDDLKSKETDSSQKAPEVVASINEAILVRCLQVLHECDPTGERQDPEDLAQLEAASYAQGNLIDAHLASIDRQSNSLAQIDVAIRDVLALYDDAIQKGGFQHQSQGMYQQPMQQYNYQQPPNRAYYPPTGPVQQQQPQQYPPQHYPAPGAQPQYACPPNSVPQPQQQQQQWPAPSSQPQQY	not soluble
MKKSHYSVIIVGGGQAGLAISYLLKQESIDHVIFEKNQIGHAWRNQRWDSFCLVTPNWQCRLPGFPYAGGDDQGFMLKDEIVQYLEDYAASFQAPILEGVEVSKLSQRTDAFEVITSQGIYTADQVVVATGGYHTPKIAAIAKKLPPHIVQLHSVDYKNPETLPDRILLVGTGQSGCQIAEDLHLAGKTVHLATGSAPRSPRRYRGRDVVEWLELMGHYDLPIDEHPQKEMVRHKTNHYLTGRDGGREIDLRQFALEGMHLYGRLKDIDGNQILFADNLKENLDQADATAARIKQSIDEYIAKNQLDAPIEAPYQPVWEPTSIPLTLNIDEIDAVIWSTGFNFNYAWVDVPVFNSMGEPLHNRGVTNVAGLYFLGLPWLYTWGSGRFSGVARDAEYLAEKIRETLPANQINPCTVALEHHHHHH	not soluble
MKKTQSEPDQEAIRKIEELSQDLIEGLESYGARLLSVYAHGGILFSEQSEFLHQLVGGRRERIPLTFGTIASTIYSDRVIFGKETIEIRHESNERFAGMFGWKEYPSKTRPGMTDGLLTAPFEFILTQSFVFKSKAAASVIMGRKQNQMINAADRASSQIEALDEALDDLESNRFVLGEHHLSLAVFANHPKALAEYLSKARAHLTNGGAVIAREDLGLEAAWWAQLPGNFSYRARSGAITSRNFAALSPFHSFPIGKLEGNVWGTAVALLKTQAGSPYYFNFHYGDLGNTFVCGPSGSGKTVIVNFLLAQLQKHNPTMVFFDKDQGAEIFVRAGGGKYKPLKNGQPTGIAPLKGMEYTEKNKVFLRNWVLKLVTAEGQTVTEEERQDIAKAIDALGNLPHAQRSLSALQLFFDNTSKEGIAIRLQRWLKGNDLGWVFDNDQDDLNLDSQFIGYDMTDFLDNEEIRRPLMMYLFNRILDLIDGRRIIIVIDEFWKALEDDSFKAFAQDRLKTIRKQNGMMLFATQSPKDALNSTIAHTIIEQCPTQIFFPNQKANYKDYVEDFKLTEREFELIQSELSRESRRFLIKQGQSSVVAELNLRGMNDEIAVLSGTTKNIELVNQIISEYGADPDIWLPIFHQRRENQLEHHHHHH	soluble
MKKVFIPINTKIPVERQFPNRVPIWGNYEFIISTKEPEQEYDYVVVLDDIEYSLRLMCCKQNICLFTGEPPYVKLYPRKYLNQFGHVYTCQSSVLKRDNACLSYPALPWMLYYNFYNDKQKEELLIDYDFLKNRPTLQRKNKICLFTSNKKISKGHIERIKFALKLQEEMPDLIDIYGSGFTNVDYKYEVMVQYKYAIVIENCSYPYYWTEKLADTFLSGCYPIYFGDPHIGDFFSKEEMAVIDIRNFDESKQTIKKIIDNNVYEKQYENICHARDKILDKYNMFSLISSTLDSIPAKLDKEKLLLSPMRLSVFDRIRNRIYRLFYLEHHHHHH	not soluble
MKKVGKSTFKFENCPIISDCFTIVGKKEGEGPLGLFFDMVVEDEYAGQKSWELAEGKLLNIAISKLIQKSGFTPDEVDLILSGDLLNQLTSSHFAARDLNIPFIGLYGACSTFALSVGLACVFVDGGFAKNIIAATSSHFCSAEKQFRYPLELGCQRPPTAQWTVTGAASFLIKPEDGTQKPKITHFTVGKILDYGIKDSNNMGACMAPAAFDTITTHLEDTKRDFTYYDIIVTGDLGYVGRKLLEELFKKEGKTLSFELLDCGILMFDQKTQDTGAGASGCAASACIFGGYFYKLMLQKTFKRILIVPTGALLSSSTVQLGESIPVIAHALSIEIELEHHHHHH	not soluble
MKKVTAMLFSMAVGLNAVSMAAKAKASEEQETDVLLIGGGIMSATLGTYLRELEPEWSMTMVERLEGVAQESSNGWNNAGTGHSALMELNYTPQNADGSISIEKAVAINEAFQISRQFWAHQVERGVLRTPRSFINTVPHMSFVWGEDNVNFLRARYAALQQSSLFRGMRYSEDHAQIKEWAPLVMEGRDPQQKVAATRTEIGTDVNYGEITRQLIASLQKKSNFSLQLSSEVRALKRNDDNTWTVTVADLKNGTAQNIRAKFVFIGAGGAALKLLQESGIPEAKDYAGFPVGGQFLVSENPDVVNHHLAKVYGKASVGAPPMSVPHIDTRVLDGKRVVLFGPFATFSTKFLKNGSLWDLMSSTTTSNVMPMMHVGLDNFDLVKYLVSQVMLSEEDRFEALKEYYPQAKKEDWRLWQAGQRVQIIKRDAEKGGVLRLGTEVVSDQQGTIAALLGASPGASTAAPIMLNLLEKVFGDRVSSPQWQATLKAIVPSYGRKLNGDVAATERELQYTSEVLGLNYDKPQAADSTPKPQLKPQPVQKEVADIAL	not soluble
MKLEIGYNHPFEIRKERYESDHVCNFSVLYISDLHLTVFSKDICTRLSKCIQELNPTIIILGGDYIDCRNGWDYLSTFFKFLSARKNVFSIAGNHDYFYGIDEIKKLIESNNIHWLENQSAVVNIQEYNILLTGNNETQSSIPADFNILCLHKPVSLDAFKIPYHIAFAGHLHGCQCVFWQNENGLYPGRFFYTFNFLRRQVKNCLYLISKGLGDTLPIRFNCKKDIIFVEIKNNSNKLEHHHHHH	not soluble
MKLEVTPKAQQWFKEETGVQPETGIRFFGKIYGKTPVHDGFSIAMSVEAPDEPMIKENLDGITYFIEETDDWFFKGYDLIVDYDEKNDEPRYQFEANQEDLTK	not soluble
MKLFRVVKRGYYISYAILDNSTIIRLDEDPIKALMRYSENKEVLGDRVTGIDYQSLLKSFQINDIRITKPIDPPEVWGSGISYEMARERYSEENVAKILGKTIYEKVYDAVRPEIFFKATPNRCVGHGEAIAVRSDSEWTLPEPELAVVLDSNGKILGYTIMDDVSARDLEAENPLYLPQSKIYAGCCAFGPVIVTSDEIKNPYSLDITLKIVREGRVFFEGSVNTNKMRRKIEEQIQYLIRDNPIPDGTILTTGTAIVPGRDKGLKDEDIVEITISNIGTLITPVKKRRKIT	soluble
MKLIILDRDGVVNQDSDAFVKSPDEWIALPGSLQAIARLTQADWTVVLATNQSGLARGLFDTATLNAIHDKMHRALAQMGGVVDAIFMCPHGPDDGCACRKPLPGMYRDIARRYDVDLAGVPAVGDSLRDLQAAAQAGCAPWLVQTGNGRKTLAQGGLPEGTRVCEDLAAVAEQLLQEA	soluble
MKLIILEHYSQASEWAAKYIRNRIIQFNPGPEKYFTLGLPTGSTPLGCYKKLIEYYKNGDLSFKYVKTFNMDEYVGLPRDHPESYHSFMWNNFFKHIDIHPENTHILDGNAVDLQAECDAFEEKIKAAGGIELFVGGIGPDGHIAFNEPGSSLVSRTRVKTLAMDTILANARFFDGELTKVPTMALTVGVGTVMDAREVMILITGAHKAFALYKAIEEGVNHMWTVSAFQQHPRTVFVCDEDATLELKVKTVKYFKGLMLVHNKLVDPLYSIKEKETEKSQSSKKPYSD	soluble
MKLKRYEVLADEITASIQAGTRRAGDRLPSVRQTSASRGLSATTVFKAYYLLEARGLIRARDRSGYYVVGKPKALPPELEAGAPAESRRVDVDVSDRVLHVLQLTMRRDVVPFGSAFPHPSLFPHARLARAMASSVAALDPWSSVDDLSAGNTRLRRAIALRYLADGVQVRTEDIVITNGALEALNLCLGAVTRPGDSVLIESPTFYSALQSLERLGLRAIEVPAHPREGIELDALARAIDTHRPAACWLMTNFQNPLGSLMPEDKKRALVELLAARDVPLIEDDVYSELYFGAQRPLPAKAYDESGIVMSCSSFSKSLAPGWRIGWVLGGRYADRILRGKLALSLSTSAPSQAALATYLEHGGYDRHLRQLRQTLEQQRNQVMEAIARHFPPGTRTTHPDGGYFLWVALPPQVDALAVHRAALSLGVSTAPGPIFSVQDRFRHCLRLNYGHPFDARAQDGLATLGKLIARQC	not soluble
MKLLHAIQTHAETYPQTDAFRSQGQSLTYQELWEQSDRAAAAIQKRISGEKKSPILVYGHMEPHMIVSFLGSVKAGHPYIPVDLSIPSERIAKIIESSGAELLIHAAGLSIDAVGQQIQTVSAEELLENEGGSVSQDQWVKEHETFYIIYTSGSTGNPKGVQISAANLQSFTDWICADFPVSGGKIFLNQAPFSFDLSVMDLYPCLQSGGTLHCVTKDAVNKPKVLFEELKKSGLNVWTSTPSFVQMCLMDPGFSQDLLPHADTFMFCGEVLPVSVAKALLERFPKAKIFNTYGPTEATVAVTSVEITNDVISRSESLPVGFAKPDMNIFIMDEEGQPLPEGEKGEIVIAGPSVSRGYLGEPELTEKAFFSHEGQWAYRTGDAGFIQDGQIFCQGRLDFQIKLHGYRMELEEIEFHVRQSQYVRSAVVIPYQPNGTVEYLIAAIVPEEHEFEKEFQLTSAIKKELAASLPAYMIPRKFIYQDHIQMTANGKIDRKRIGEEVLVRSHHHHHH	soluble
MKLLLIGYGNVGKAFRRLLHEKKDNYPILQGVEIAGIITRQGLMVGDKENFSPDKQLTVLEAIDYINPDVIVDMSVPNYKDGEPSVSAYIKALSRKIHVITVNKAPLALKFREIFEVAEKTGAKIGFQGTVMSGTPSINLFRIQPVAEVSRIRGILNGTTNYILTRIYEGLSFNEALKEAKEKGYAEEDPTLDLNGFDAAAKLTILSNFIMNRSLKLGDFKFKGITEITNEEIRRAKSEGKKIKLIAYADNYVVQVSPQIIGPQDPLYYIDGVENALEIQNEIQRIIIRGPGAGPINAAYGALSDLVLLLEGCL	not soluble
MKLLTLNCHSWQEENQIEKIQYLAKVIQEEEYDVIALQEVSQSIQAENVCGNKKKDNFGLLLLEELKALHVKDYNITWDFSHIGYDVYEEGLAIITKHNIIKEDTFFISENEDTTYWKTRKIVSTTIAYNGKDITFYSCHLGWWNDEEESFKGQVDRLMERVDSNKLAFLMGDFNNNARLKGEGYEYMMQKGLYDTYELAIEKDEGTTVQGEIAGWDENKHNLRIDLILCNQSKKVHSSKVIFNGTNRNVISDHFGVEVQLDI	not soluble
